In US7169892B2, “Lipid-peptide-polymer conjugates for long blood circulation and tumor specific drug delivery systems” (Astellas Pharma Inc., priority 2003, dated 2007):
The star is where a group is joined. amidopropyl polyoxyethylene methyl ether = C-terminal amidopropyl PEG methyl ether; Fmoc = O=C(OCC1c2ccccc2-c2ccccc21)*

Target: T1, MMP-2 (Homo sapiens, UniProt P08253)
T1 sequence (P08253 110-660): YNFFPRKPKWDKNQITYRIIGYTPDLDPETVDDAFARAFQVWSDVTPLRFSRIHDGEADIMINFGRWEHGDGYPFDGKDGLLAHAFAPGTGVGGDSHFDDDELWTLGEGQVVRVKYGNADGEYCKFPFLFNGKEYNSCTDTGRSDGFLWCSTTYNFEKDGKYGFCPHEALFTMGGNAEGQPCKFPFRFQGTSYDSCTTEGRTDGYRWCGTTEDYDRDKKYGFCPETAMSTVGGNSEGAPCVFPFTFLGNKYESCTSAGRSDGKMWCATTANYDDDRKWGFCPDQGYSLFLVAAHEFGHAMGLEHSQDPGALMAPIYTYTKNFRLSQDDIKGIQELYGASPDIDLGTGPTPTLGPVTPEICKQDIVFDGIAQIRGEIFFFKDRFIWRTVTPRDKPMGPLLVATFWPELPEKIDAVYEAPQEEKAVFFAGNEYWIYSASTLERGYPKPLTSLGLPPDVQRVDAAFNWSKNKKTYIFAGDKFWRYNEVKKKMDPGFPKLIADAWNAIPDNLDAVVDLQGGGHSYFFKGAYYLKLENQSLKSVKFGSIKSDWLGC
Test: Degradation of Fmoc-GPQGIAGWG-PEG by MMP-2 (gel filtration)
Type: biochemical
Conditions: per unit weight of MMP-2 and unit time, beginning (15 minutes), MMP-2 0.34 μg/ml, 37° C., FIG. 4
Method: After mixing in 0.5 ml of sample in 0.5 ml of acetonitrile, the mixture was filtered and gel filtration was performed.
The effects on degradation by MMP-2 when PEG bonded with Fmoc-GPQGIAGWG (SEQ ID NO:21) were evaluated.
MMP-2 solution was diluted with Tris buffer. […] The final concentration of MMP-2 was 0.34 μg/ml. […] The Fmoc-GPQGIAGWG-PEG (SEQ ID NO:22) in the filtrate was separated and quantitatively determined by gel filtration.

- degradation rate by MMP-2 compared with Fmoc-GPQGIAGWG: virtually the same
Substance: 9-fluorenylmethyloxycarbonyl (Fmoc)-glycyl-prolyl-glutamyl-glycyl-isoleucyl-alanyl-glycyl -tryptophanyl-glycyl (Fmoc-Gly-Pro-Gln-Gly-Ile-Ala-Gly-Trp-Gly)-amidopropyl polyoxyethylene methyl ether (Fmoc-GPQGIAGWG-{amidopropyl polyoxyethylene methyl ether}) [Fmoc-GPQGIAGWG-PEG]
